Entries after “also recorded” stand apart in the source; their conditions may differ.
Legend:
[1] = test system: PC3 prostate carcinoma cell line; assay: Antitumor activity in PC3 prostate cancer xenograft model; type: in vivo, human (xenograft in athymic male nude mice); parameters: key to % TGI (% Tumor Growth Inhibition): TR = Tumor Regression
Method: Tumor cells from the PC3 prostate carcinoma cell line were grown to approximately 80% confluency then trypsinized, collected, washed once in HBSS (Hank's balance salt solution, Mediatech Inc.), then re-suspended in 50% Matrigel® in HBSS at 2×10^7 cells/mL on ice before inoculation into animals. Athymic male nude mice (Nu/Nu (Ncr); Taconic Farms; average weight ˜20 g) were inoculated intramuscularly (IM) with 0.05 mL of this cell suspension, peritibially, in the left hind leg (adjacent to the tibia periosteum). The implants in the animals were assessed twice a week and allowed to grow to a mean tumor volume of approximately 500 mm^3 (Day −2; Table 12). Actual tumor volumes were determined using VisualSonics Vevo 770 high-resolution ultrasound, using two perpendicular axial dimensions.
Animals were sorted randomly and grouped into 6 groups of 8 mice per group (6+2 satellite mice). Treatment groups were vehicle (API buffer), PEGPH20 (157,500 Units/kg, 4.5 mg/kg), low dose dexamethasone (1.25 mg/kg), high dose dexamethasone (5 mg/kg), PEGPH20 (4.5 mg/kg)+low dose dexamethasone (1.25 mg/kg) and PEGPH20 (4.5 mg/kg)+high dose dexamethasone (5 mg/kg). The dose and frequency of the PEGPH20 (or vehicle) intravenous injections was 157,500 Units/kg or approximately 4.5 mg/kg, every 3rd day starting on Day 0 (Days 0, 3, 6, 9, 12) with a total of 5 injections (Q3Dx5) with a dose volume of 0.1 mL. This dosing and frequency regimen was previously shown to inhibit xenograft tumor growth by 34-70%. The doses and frequency of the dexamethasone intraperitonal injections were 1.25 mg/kg at the low dose and 5 mg/kg at the high dose, once a day until Day 13 (QDx13) with a dose volume of 0.1 mL.
The tumor volumes of all mice were measured pre-treatment on Day −2 (average tumor volume of ˜500 mm^3) and on Day 1, 6, 9, 13, 16 and 20 by capturing images using the VisualSonic ultrasound system and using an ultrasound imaging software program to calculate tumor volume (Table 12).

[2] = test system: BxPC3 pancreatic cancer cell line; assay: Antitumor activity in BxPC3 pancreatic cancer xenograft model; type: in vivo, human (xenograft in athymic female nude mice)
Method: Tumor cells from the BxPC3 pancreatic cancer cell line were grown to approximately 80% confluency, trypsinized, collected, washed once in HBSS (Hank's balance salt solution, Mediatech Inc.), and re-suspended in 50% Matrigel in HBSS at 2×10^7 cells/mL on ice before inoculation into animals. Athymic female nude mice (average weight ˜20 g) were inoculated intramuscularly (IM) with 0.05 mL of cell suspension, peritibially, in the left hind leg (adjacent to the tibia periosteum). The tumors in the animals were assessed twice a week and allowed to grow to a mean tumor volume of approximately 250 mm^3 (Day −1; Table 13). Actual tumor volumes were determined using VisualSonics Vevo 770 high-resolution ultrasound.
The animals were randomly grouped into 6 groups of 8 animals per group (6+2 satellite mice) and treated with vehicle (API buffer), PEGPH20 (157,500 Units/kg, 4.5 mg/kg), low dose dexamethasone (1.25 mg/kg), high dose dexamethasone (5 mg/kg), PEGPH20 (4.5 mg/kg)+low dose dexamethasone (1.25 mg/kg) and PEGPH20 (4.5 mg/kg)+high dose dexamethasone (5 mg/kg). The dose and frequency of the PEGPH20 (or vehicle) intravenous injections was 157,500 Units/kg or approximately 4.5 mg/kg, on Days 0, 3, 7, 10, 13 and 17 for a total of 6 injections starting on Day 0 (dose volume of 0.1 mL). The doses and frequency of the dexamethasone intraperitonal injections was 1.25 mg/kg at the low dose and 5 mg/kg at the high dose, once a day until Day 17 (QDx17) with a dose volume of 0.1 mL.
The tumor volumes of all mice were measured pre-treatment on Days −4 and −1 (mean tumor volume of ˜250 mm^3) and on Days 4, 7, 11, 14 and 17 by capturing images using the VisualSonic ultrasound system and using an ultrasound imaging software program to calculate the tumor volume (Table 13). The percent tumor growth inhibition (% TGI) was calculated as described above in Example 9A.

[3] = test system: soluble plasma hyaluronan; assay: Soluble plasma hyaluronan ELISA in BxPC3 model mice; type: in vivo; conditions: PEGPH20 4.5 mg/kg alone or + dexamethasone (high or low dose)
Method: Plasma samples were additionally used to measure soluble plasma hyaluronan in the control group and each of the treatment groups (R&D Systems Catalog #DY3614; ELISA assay). In the vehicle control group, the plasma hyaluronan levels ranged from 2,000 to 4,000 ng/mL.

[4] = Clinical study (Phase 1-101), musculoskeletal adverse events of PEGPH20
Description: The median age of the patients was age 61 (range 56-86) with tumor types including histiocytoma, colorectal, pancreatic, bladder, carcinoid and ovarian. In all cases, the patients entered the program under pain medication related to their presenting condition but not for study drug-related pain.

B1: PEGPH20 (protein)
chain: LNFRAPPVIPNVPFLWAWNAPSEFCLGKFDEPLDMSLFSFIGSPRINATGQGVTIFYVDRLGYYPYIDSITGVTVNGGIPQKISLQDHLDKAKKDITFYMPVDNLGMAVIDWEEWRPTWARNWKPKDVYKNRSIELVQQQNVQLSLTEATEKAKQEFEKAGKDFLVETIKLGKLLRPNHLWGYYLFPDCYNHHYKKPGYNGSCFNVEIKRNDDLSWLWNESTALYPSIYLNTQQSPVAATLYVRNRVREAIRVSKIPDAKSPLPVFAYTRIVFTDQVLKFLSQDELVYTFGETVALGASGIVIWGTLSIMRSMKSCLLLDNYMETILNPYIINVTLAAKMCSQVLCQEQGVCIRKNWNSSDYLHLNPDNFAIQLEKGGKFTVRGKPTLEDLEQFSEKFYCSCYSTLSCKEKADVKDTDAVDVCIADGVCIDAFLKPPMETEEPQIFY
Tumor volume ([1]; Day 1, PEGPH20 4.5 mg/kg IV Q3Dx5 and/or dexamethasone 1.25 mg/kg IP QDx13): 394.38 mm^3
% TGI (% Tumor Growth Inhibition) ([1]; Day 1, PEGPH20 4.5 mg/kg alone or + dexamethasone 1.25 mg/kg): TR
Tumor volume ([1]; Day 6, PEGPH20 4.5 mg/kg IV Q3Dx5 and/or dexamethasone 1.25 mg/kg IP QDx13): 598.39 mm^3
% TGI (% Tumor Growth Inhibition) ([1]; Day 6, PEGPH20 4.5 mg/kg alone or + dexamethasone 1.25 mg/kg): 71%
Tumor volume ([1]; Day 9, PEGPH20 4.5 mg/kg IV Q3Dx5 and/or dexamethasone 1.25 mg/kg IP QDx13): 674.83 mm^3
% TGI (% Tumor Growth Inhibition) ([1]; Day 9, PEGPH20 4.5 mg/kg alone or + dexamethasone 1.25 mg/kg): 64%
Tumor volume ([1]; Day 13, PEGPH20 4.5 mg/kg IV Q3Dx5 and/or dexamethasone 1.25 mg/kg IP QDx13): 827.53 mm^3
% TGI (% Tumor Growth Inhibition) ([1]; Day 13, PEGPH20 4.5 mg/kg alone or + dexamethasone 1.25 mg/kg): 56%
Tumor volume ([1]; Day 16, PEGPH20 4.5 mg/kg IV Q3Dx5 and/or dexamethasone 1.25 mg/kg IP QDx13): 1046.73 mm^3
% TGI (% Tumor Growth Inhibition) ([1]; Day 16, PEGPH20 4.5 mg/kg alone or + dexamethasone 1.25 mg/kg): 47%
Tumor volume ([1]; Day 20, PEGPH20 4.5 mg/kg IV Q3Dx5 and/or dexamethasone 1.25 mg/kg IP QDx13): 1310.85 mm^3
% TGI (% Tumor Growth Inhibition) ([1]; Day 20, PEGPH20 4.5 mg/kg alone): 41%
Tumor volume ([1]; Day −2 (pre-treatment), PEGPH20 4.5 mg/kg IV Q3Dx5 and/or dexamethasone 1.25 mg/kg IP QDx13): 491.10 mm^3
Tumor volume ([2]; Day 4, PEGPH20 4.5 mg/kg IV x6 and/or dexamethasone 1.25 mg/kg IP QDx17): 350.44 mm^3
% TGI (% Tumor Growth Inhibition) ([2]; Day 4, PEGPH20 4.5 mg/kg alone or + dexamethasone 1.25 mg/kg): 68%
Tumor volume ([2]; Day 7, PEGPH20 4.5 mg/kg IV x6 and/or dexamethasone 1.25 mg/kg IP QDx17): 394.40 mm^3
% TGI (% Tumor Growth Inhibition) ([2]; Day 7, PEGPH20 4.5 mg/kg alone or + dexamethasone 1.25 mg/kg): 63%
Tumor volume ([2]; Day 11, PEGPH20 4.5 mg/kg IV x6 and/or dexamethasone 1.25 mg/kg IP QDx17): 473.50 mm^3
% TGI (% Tumor Growth Inhibition) ([2]; Day 11, PEGPH20 4.5 mg/kg alone or + dexamethasone 1.25 mg/kg): 60%
Tumor volume ([2]; Day 14, PEGPH20 4.5 mg/kg IV x6 and/or dexamethasone 1.25 mg/kg IP QDx17): 596.96 mm^3
% TGI (% Tumor Growth Inhibition) ([2]; Day 14, PEGPH20 4.5 mg/kg alone or + dexamethasone 1.25 mg/kg): 54%
Tumor volume ([2]; Day 17, PEGPH20 4.5 mg/kg IV x6 and/or dexamethasone 1.25 mg/kg IP QDx17): 790.16 mm^3
% TGI (% Tumor Growth Inhibition) ([2]; Day 17, PEGPH20 4.5 mg/kg alone or + dexamethasone 1.25 mg/kg): 48%
Tumor volume ([2]; Day −1 (pre-treatment), PEGPH20 4.5 mg/kg IV x6 and/or dexamethasone 1.25 mg/kg IP QDx17): 275.75 mm^3
Tumor volume ([2]; Day −4 (pre-treatment), PEGPH20 4.5 mg/kg IV x6 and/or dexamethasone 1.25 mg/kg IP QDx17): 196.87 mm^3
plasma hyaluronan [3]: no detectable (below limit of quantitation) hyaluronan
dose-limiting toxicity ([4]; 0.5 μg/kg IV every 21 days): No dose-limiting toxicities
musculoskeletal side effects, severity ([4]; 0.5 μg/kg IV every 21 days, three patients): intermittent Grade 1 or transient Grade 2
dose-limiting toxicity ([4]; 0.5 μg/kg IV twice weekly): met dose-limiting toxicity
severity of muscle/joint pain ([4]; 0.5 μg/kg IV twice weekly, after 2 doses): Grade 3
musculoskeletal pain leading to discontinuation (summary) ([4]; 0.5 μg/kg in a 21 day cycle): Grade 3
dose-limiting toxicity ([4]; 0.75 μg/kg IV every 21 days, Grade 3 event after first cycle): not considered a dose-limiting toxicity
musculoskeletal side effects, severity ([4]; 0.75 μg/kg IV every 21 days, cohort and individual patients): intermittent Grade 1 or transient Grade 2; also recorded: Grade 1; also recorded: Grade 3; also recorded: Grade 2
dose-limiting toxicity ([4]; 1.0 μg/kg IV every 21 days): no dose-limiting toxicities
musculoskeletal symptoms, severity ([4]; 1.0 μg/kg IV every 21 days, one of three patients): Grade 1
dose-limiting toxicity ([4]; 1.5 μg/kg IV every 21 days, one patient): no dose-limiting toxicities
musculoskeletal pain leading to discontinuation (summary) ([4]; 50.0 μg/kg dose twice weekly, individual patients): Grade 4; also recorded: Grade 3
duration of pain ([4]; single IV dose 0.05 mg/kg): more than 9 days
onset of stiffness and muscle and joint pain after dosing ([4]; single IV dose 0.05 mg/kg): 6 to 10 h
severity of muscle/joint pain ([4]; single IV dose 0.05 mg/kg, individual patients): Grade 3
